Paper PMC5778463

Target: Influenza A polymerase heterotrimer (PA-PB1-PB2) (Influenza A virus A/little …, UniProt H6QM92;H6QM91;H6QM90 1-713;1-756;1-760)
Experiment: crystal structure

Binder: AAUCUAUAAUAG (ssRNA, 5' m7Gppp cap) [capped 12-mer RNA primer]
- binding result: binds

B1: vRNA promoter (5' nt 1-16 / 3' nt 1-18) (structured_RNA)
RNA 1: AGUAGUAACAAGAGGG
RNA 2: UAUACCUCUGCUUCUGCU
modifications: 5' phosphate on strand 1
- binding result: binds
